Reference: US20260250378A1

Legend:
[1] = target: T1, purified fragment of human CNX containing Amino acids 1-481 fused to human FC region (FC-CNX) (human) (UniProt P27824); assay: BLI (Octet), scFv on penta-His sensor, FC-CNX 90, 30, 10, 3.3 nM
T1 sequence (looked up): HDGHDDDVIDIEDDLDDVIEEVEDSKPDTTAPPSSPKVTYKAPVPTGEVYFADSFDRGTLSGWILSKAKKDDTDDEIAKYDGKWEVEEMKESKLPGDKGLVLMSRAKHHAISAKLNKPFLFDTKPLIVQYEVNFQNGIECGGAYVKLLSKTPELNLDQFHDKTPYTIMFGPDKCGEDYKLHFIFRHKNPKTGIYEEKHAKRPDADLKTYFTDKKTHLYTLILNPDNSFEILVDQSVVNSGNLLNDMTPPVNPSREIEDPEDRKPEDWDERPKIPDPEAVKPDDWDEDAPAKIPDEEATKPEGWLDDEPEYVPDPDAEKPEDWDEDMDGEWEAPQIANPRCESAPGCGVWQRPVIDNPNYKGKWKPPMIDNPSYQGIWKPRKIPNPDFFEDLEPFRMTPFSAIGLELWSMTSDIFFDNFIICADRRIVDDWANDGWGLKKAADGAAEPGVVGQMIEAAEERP

[2] = target: T1, purified fragment of human CNX containing Amino acids 1-481 fused to human FC region (FC-CNX) (human); assay: BLI (Octet), scFv on penta-His sensor, FC-CNX 90, 30, 10, 3.3 nM; same value in the inset box of the Fitting View (Full X^2 0.108, Full R^2 0.9955)
[3] = target: T1, purified fragment of human CNX containing Amino acids 1-481 fused to human FC region (FC-CNX) (human); assay: BLI (Octet), scFv on penta-His sensor, FC-CNX 90, 30, 10, 3.3 nM; printed without the letter E

koff [1]: 0.000149 s⁻¹
Kd [2]: 131 pM
kon [3]: 1.14e+06 M⁻¹ s⁻¹
B1: scFv clone 8 (C008) (scFv, part only; not given: His and myc tags, phage protein, not shown: another chain or arm of the molecule; large carriers; small tags and cut ends)
scFv: QVQLVQSGGGVVQPGRSLRLSCAASGFTVSSNYMSWVRQAPGKGLEWVSVIYSGGSTYYADSVKGRFTISRDNSKNTLYLQMNSLRAEDTAVYYCARGSRAVAGAFDYWGQGTLVTVSSGGGGSGGGGSGGGGSYSELTQDPAVSVALGQTVRITCQGDSLRTYYANWYQQKPGQAPVLVMYAKNHRPSGIPDRFSGSSSGNTASLTITGAQAEDEADYYCGSRDSSGNHPVFGGGTKVTVL
